Test: soluble on expression in E. coli; label from the status in PepcDB or PDB records

Sequence	soluble on expression in E. coli
MTTLSMENFAQLFEESLTLHDMRVGEVITAEVVAVDSNFVTVNAGLKSESLIPAEEFKNDQGVVEVAIGDFVTVAIDALENGFGETKLSREKAKRMAAWVELEEALEAGTILSGMISGKVKGGLTVMVNGIRAFLPGSLVDVRPVKDTTPYENKQIEFKVIKLDRKRNNVVVSRRSVLEETLGEERKALLETLKEGAVIKGIVKNITDYGAFVDLGGIDGLLHITDLAWRRVKHPSEVLAVGDEVEAKVLKFDQEKNRVSLGLKQLGEDPWVGLSRRYPSGTRLFGKVTNLTDYGAFVEIEQGIEGLVHVSEMDWTNKNVHPSKVVQVGDEVEVMILEIDEDRRRISLGMKQCLANPWNEFADNFHKGDKLKGAIKSITDFGVFVGLPGGIDGLVHLSDLSWNEAGEEAVRKFKKGDEVEAVVLSIDVEKERISLGIKQLEGDPFNNFVAMNDKGALVKGTVKSVDAKGAVIALDADVEGYLRASELSRDRVEDARSVLKDGDAVEAVIVAVDRKSRNISLSIKAKDAQEDNAALKSLAVDSASAGTTNLGALLKAKLSGSNE	soluble
MSLATTVKIATISPLSGSSSNLGLQIKNGAQLAVNEYKAEFAKLGMNLSLVAYDDQADPATGTAAARRVVADKNVLAVVGTLNTGVAIPASQALSTSKVAMVSPANTGTKVTDRGLKNMNRICARDDAQGPAGADFMVSTLKVKKVYVINDKTPYGEGLSGEAEKRLKAKGVQIVQSEGVAAEERDFTAIITKIQTLKPDAIYFGGLYGQIGPFAQQLRAKGVQVPLIGGDGMDSDELAKLAGAQGANNIYFTTVAPPLDSVPAAKTMAGNFKKAFGSDVQGYGIMGYDSAKVVLQGILDAAKKNGNKAPSRAQVETAIRSGTFGNLLTGTVQFDKNGDRKAGKMYVIAIKNAQRSTAGQVNVLREGHHHHHH	soluble
MHKPCVIIPVFDHELAVPDVVKAVRAAGLPCVLVDDASSPACAAVLRQLAQGDEIYLVCLPVNQGKGGAVMAGFREAARLGFSHALQVDADGQHDLSDIPVFLEQSRQCPEALICGYPQYDESVPKGRLYARYLTHVWVWINTLSLQIRDSMCGFRLYPLAPVLVLIDAVRIGKRMDFDSEILVRLAWRGQAMRWLPTRVHYPQDGLSHFRLFHDNALISTMHAKLFFGMLMRLPLILWRRWRSLEHHHHHH	not soluble
SLIDNPHAQDYWPNRGQMDVQGLAVKYTEAGRAVLSDISFSVEGGLSMGLLGRTGSGKSTLLSALLRLASTDGEISIDGISWNSVPLEKWRKAFGVVPQKVFILTGTFRMNLDPHGRYSDEELWRVADQVGLKSVIEQFPDRLDFQLENGGSVLSHGHKQLMCLARSILSKARILLLDEPSAYLDTITLQVLRKTLKHAFSDCTVILSEHKVEPLLECDSFLVIEGSSVKSYDSIQKLLNEMSDLKQAVSAAD	soluble
MTQYQALIIGFGKAGKTLAATLAKTGWRVAIIEQSASMFGGTCINIGCIPTKTLVHDAEREGDFSVAMQRKAAVVNFLRDKNFHNLADLDNVDVIEGRAEFIDNHTLRVFQADGERVLRGEKIFINTGAESVIPAITGLTTTAGVFDSTGLLSLSQRPARLGILGGGYIGLEFASMFANFGTKVTIFEAAPQFLPREDRDIAQAITRILQEKGVELILNANVQAVSSKEGAVQVETPEGAHLVDALLVASGRKPATAGLQLQNAGVAVNERGGIIVDDYLRTTADNIWAMGDVTGGLQFTYISLDDFRIVRDGLLGDGKRSTRDRQNVPYSVFMTPPLSRVGLTEEQARASGATVQVVTLPVAAIPRARVMNDTRGVLKAVVDVNTQRIVGVSLLCVDSHEMINIVKTVMDADLPYTVLRDQIFTHPTMSESLNDLFSLIK	not soluble
MSLFFSLPYRFNVLSVVIASIPTLAFPTTFSDSTFFHKDWEIVCDNTLTCRAAGYSPEEKGMGEDTGTQDVSLLITRHAGQNTPITAEVTLAEVDKEIPKGTRLTLAIDGVDKGVLTSTEDNLWQLNETQIPAVLQALKGRGKVAFLHDGMVSELSGAGAYAVLLKMDERQGRIGTTDAITKKGNKSSELSAVAAPVIYAAATSQEPSRNLTNAEQAAIQKKLLKTLKEDDCYDFPPQEERVAEPMMITPLNGSMSLLSTLCWRAAYNEGYAYWVIDNAMQTQPQLMTTIGVGYENGEITAVQKGRGLADCMSDSAWVWDGKTFQQSRASITGSCRMIRLGGTWDLPYWTATVIRPGKEGHHHHHH	soluble
SNAMKESNHLMDTPYSYLIRSIGMKLKTSADARLAELGLNSQQGRMIGYIYENQESGIIQKDLAQFFGRRGASITSMLQGLEKKGYIERRIPENNARQKNIYVLPKGAALVEEFNNIFLEVEESITKGLTKDEQKQLMSILIKVNRSM	soluble
MSLEARVLTGAALEARLDEVARLRIAVFRDWPYLYEGSMDYERSYLSTYRTSPGAILVGAFDGDRLVGASTGTPMEDHAEDFAAAFARTGLPLDEIFYCAESVLLPDYRGHGMGHRFFDLREAHARALGRRHSAFCSVIRPEDHPLRPAAARSNEPFWRKRGYAPLPGVVAHYGWTDVGEERETQKPLQFWIRDL	not soluble
MAVDMFIKIGDVKGESKDKTHAEEIDVLAWSWGMSQSGSMHMGGGGGAGKVNVQDLSFTKYIDKSTPNLMMACSSGKHYPQAKLTIRKAGGENQVEYLIITLKEVLVSSVSTGGSGGEDRLTENVTLNFAQVQVDYQPQKADGAKDGGPVKYGWNIRQNVQA	soluble
MGSDKIHHHHHHMKISGHTSVVVAEKLLSEAKFSNLTQSAVVMISQRLCLGIILTGFITNQALAAEPKQSVVPISSVLATNYNKTQIHVTPVHSLVPKLSTKRANFKQETTTQDSVYLADWVLDSGDNQQMPFAIVDKKAAKVYVFDALGQLTGAAPALLGLAVGDDSIPNIGNMALASIKPEQRTTPAGRFVVALGKNIHNKEVLWIDYDAAISLHRVVTSSPKERRLQRLESQNLLERRISYGCINVPVNFYDQVVSPAFTGTNGVVYVLPDTRSIQEVFGSYSEPPRVYRRQIYLSQAAMPDRVKLS	not soluble
MGSDKIHHHHHHMKQFWNWKNYQIAWQVEETSNDSGIAIVLIHGFGACKEHWRFNQKTISSIAPCYALDLIGFGDSSKPNSQIPYEKKTYQNFNYCFDNWSQLVYDFCNEIVKKPVLLIGNSIGGVIALNTSKKLSQKALGVILIDCAQRTMDDKRLAEQSLLMRFLRPVIKTFVRQRLLSSNIFNIAAQPKFIAKILKVAYPSRNNVDEELIDTLFKPTQSKGAPEAFRGFINLFDDYLAPNLLKEMNTSVHLIWGEKDPWEPVKEAQKWFKTFECIKSLDVISDAGHCPHDEMPEKVNPILIKIIQEAI	not soluble
MSLNQPDLFSSTSGTVGGLAVQSILEGFKSHYARDQETELSLEEYLSLAKQDPMAYASPAERMLAAIGEPELIDTRNDPRLSRLFSNRLVRRYPAFKEFYGLEDVIDQIVAFFKHAAQGLEERKQILYLLGPVGGGKSSIAERLKVLMEAYPIYALKGSPVNESPLGLFHPDRFGDTLEQEYGIARRYLCGIMSPWAVKRLREFDGDISQFRVVRLNPSVLRQVAIAKTEPGDENNQDISSLVGKVDIRKLERYAQDDPDAYSYSGGLCLANQGLLEFVEMFKAPIKMLHPLLTATQEGNFKGTEGFSAIPFNGMILAHSNESEWQTFRNNKHNEAFLDRIYIVKVPYCLQVSEEVCIYEKLLRHSSLAQAPCAPGTLDMMAQFSVLTRLKEPENSSIYSKLRVYDGESLKDVDPKAKALQEYKDYAGTDEGMTGVSTRFAYKILSSVFNYDQTEVAANPVHLMYVLEQRIAREDFPEETRRRYLEFIKGYLAPRYAEFIGKEIQTAYLESYSEYGQNIFDRYVTFADCWIQDEEFRDPETGESFDRSALNDELEKIEKPAGIANPKDFRNEIVNFVLRARANNAGRNPNWTSYEKLREVIEKKMFSNTEDLLPVISFNAKASAEDRSKHQSFVDRMVDKGYTEKQVRLLCEWYLRVRKSSEGHHHHHH	soluble
MSLGETAGKLPRKPTLGPETAGATLVIPGETDRLASLYARAQAEGGKVVLWAGGDAPNQMDWLKTAFESRFPGVTLDVTVDLSKFHDLRIDQELAAGTLTPDVAMLQTTFDFDKWKARDVLLRYKPVGFARQKKGYADPDGAYVTAYNNAFVPTYASVRLPAERYPTRFADYLKPAFKGKLVLTYPHDDDAVLYVYDKLERRYGSGFLRALAAQKPNFLRGTAAPAASVGADSIGSLGNLTGYATDSDTPAGYFIPTDEPFIVWNQRAAIFKAARHPATAKLLLSYLGSAEFQSSYGGWRARADVGEAPGLPPLESLKNVDVHDFTRWMTDRQRVASLRRHMAEIFGPVRGESPLRDPALMSLLGLTANDIVALPEPDLPIYEGHHHHHH	soluble
GPGSMLRRLFTRMAPRAKNHEELMKMLREGSQVGKMAASEESGVTFRDIRTVPIGESNEAKRRRLLYQSTYRGMVEMDIILGAFARQNIETLSAPQLEEYDAVLRHFDNDLYKWLVMDVEAPAEVAQIPVFQSLHSFVRDEREKLLKCAS	soluble
LHLELEEKLAGIAAWEPTAPRLLNPGVSSGKALVASGVAAAHAREVLEDLGLRDVIPLWQVVQPYPLHTAFVERLLADYDEILVLEETTGVMELQLADRHRVKGKRSGFVPEVGELSPELVERLVAAFAGIPAAPSVAPPTGGGRRPTLCPGCPHRASFHAIKRAAPKGIYPSDIGCYTLGLNLGGVDTVLCMGAAVSQAAGFYHAYKLSGQVPDIVATIGDSTFFHAGIPPLIDAVVQDARFVLVILDNATTAMTGNQPTPALGWGAGGVPTATVDMEGLVKACGV	not soluble
VLGAIENVEIADIKQAFTARIDTGATTSSLNAVDLQEFERNGSQWVRFHLVNQDVKADDGKLEWITAPVIRNVKIRQATADDAERRPVVELWIKLGAIHEKVQFTLADRSHMTHSVLLGREFIQDIAVVDVSKEFVQSKK	soluble
MSLKIKFKRLDYQEQCRDQILGVFKGIDLKEPENDAQRISNPVFEIGAIKDLLLENIENLRSKQKITQGSVGIDKSLNCDILMETGTGKTFCFLECVYALHKNHHLSKFIVLTPSNAIKLGVLKSVEITREFFKSEYSNTHLESYEDIERFILASNHKCCVLVMTFSAFNKEKNTINKSCLENTNLFNGATSYMQALVSMRPIVIMDEPHRFLGDKTKKYLEQLNALLTLRFGATFKDDYNNLIYTLDSKKAFDCALVKSISVASVGESNECFLELKGIEKKEAAINYTDLENKTQSVKVKEHDNLGVVTQISALEDYIVEKITKTEIRFLNGFNLLLDQKEPFSHLLEGEQEVMLKEAIKSHFEREEGLFKKGIKALCMVFISGVNSYLSENEKPAKLALLFEKLYQQKLEEVLKKPLDENYRAYLECTREDIKKVHGGYFAKSKKEGDETKTIELILKEKEKLLSFDSDLRFIFSQWALQEGWDNPNVMTICKLAPSHSNITKLQQIGRGLRLAVNDKGERITKEHADFDFVNELVVIVPQVEGDFVGAIQQEISEHSLIKQEFSAEELEKSGVVKKGRYGFLLETLEGLGFGEKTGDENFKLTLNQNEFLEKEPELEKLKDEKYLDFEKLKDFLKDRLIGNSRVRDKNERKSEKIKINKENFKKFETLWESLNHQARIAYAIDSESLIDEIVKNINSSFNVSSKIVSVTTHKKVETMGNNAKTEIFERENACVWSLHEFISALSNKVKLSFKSVAKVLENIDENKFNEIKKNEQEGLRRLEELFLEIIYQNIKDKISYQMRETTIKNRKNDAFYDEKGEIREFLDGSLGADKYEIKNSSVREKCLYENFMQVDSEIEKDTIEESNDTKIIVFGKLPRVKIPIGLNQTYSPDFGYVVENNDKKVLLVVETKGVDKKSELRPEEERKISTAKKFFEALKKQGVNIEYKTKMEKDQLSALINEVLNRKDEGHHHHHH	not soluble

Source: the DeepSol protein solubility set
